Results taken from US8012929B2, “Peptides directed for diagnosis and treatment of amyloid-associated diseases” (Tel Aviv University Future Technology Development L.P., priority 2002, dated 2011).
Square brackets hold non-standard residues; d marks the D form. Ends that are not written are not given here. Aib = CC(C)(N)C(=O)O

What was measured:
[1] = target: T1, full-length IAPP polypeptide (Homo sapiens, UniProt P10997); test: ThT fluorescence assay of IAPP fibril formation with inhibitory peptides (Tris buffer); format: biochemical; conditions: for inhibition of IAPP aggregation (ThT endpoint): 4 μM IAPP, 40 μM inhibitory peptide, 142 hours of incubation
T1 construct: purchased CalBiochem (La Jolla Calif., USA)
T1 sequence (P10997 34-70 limits assumed): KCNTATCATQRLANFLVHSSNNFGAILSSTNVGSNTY
Procedure: The ability of amyloidogenic peptides of IAPP, identified according to the teachings of the present invention to inhibit amyloid formation by the full-length polypeptide was tested by the addition of beta-breaker proline residues to the recognition sequence as set forth in the peptide sequence NFLVHPP (SEQ ID NO: 45). The degree of amyloid fibrils formation with and without the inhibitor was assessed using Thioflavin T (ThT) as molecular indicator. The degree of fluorescence of the ThT dye is directly correlated with the amount of amyloid fibrils in the solution [LeVine H 3rd. (1993) Protein Sci. 2:404-410. IAPP solutions ([…] hIAPPin 10 mM Tris buffer pH 7.2), were incubated in the presence or absence of 40[…] of the modified peptide (i.e., NFLVHPP) at room temperature. Fibril formation was determined by a ten fold dilution of the solutions into a solution that contained 3[…] thioflavin T (ThT) in 50 mM sodium phosphate pH 6.0 and determination of fluorescence at 480 nm with excitation at 450 nm using a LS50B spectroflurimeter (Perkin Elmar, Wellesley, Mass.). As a control 10 mM Tris buffer pH 7.2 were diluted into the ThT solution and fluorescence was determined as described.
The degree of amyloid fibril formation with and without the Aib inhibitor was assessed using thioflavin T (ThT) as molecular indicator. The degree of fluorescence of the ThT dye is directly correlated with the amount of amyloid fibrils in the solution [LeVine H 3rd. (1993) Protein Sci. 2:404-410].
[…]IAPP solutions (4 μM peptide in 10 mM Tris buffer pH 7.2), were incubated with or without 40 μM of the various peptide solutions at room temperature. Fibril formation was assessed by a ten fold diluation of the solutions into a solution which contained 3 μM thioflavin T (ThT) in 50 mM sodium phosphate pH 6.0 and determination of fluorescence at 480 nm with excitation at 450 nm using a Perkin Elmar LS50B spectroflurimeter. As a control a 10 mM Tris buffer pH 7.2 was diluted into the ThT solution and fluorescence was determined as described. […]

hIAPP1-37 = target: T2, hIAPP1-37 (Homo sapiens, UniProt P10997); test: Thioflavin T fluorescence assay of hIAPP fibrillization (sodium acetate buffer); format: biochemical; conditions: 4 μM hIAPP1-37, 40 μM inhibitor, 10 mM sodium acetate pH 6.5
T2 construct: purchased CalBiochem (La Jolla Calif., USA)
T2 sequence (P10997 34-70 limits assumed): T1 sequence (P10997 34-70 limits assumed)
Procedure: Thioflavin T fluorescence assay—hIAPP fibrillization was monitored by Thioflavin T dye binding assay. hIAPP1-37 stock solution was diluted to a final concentration of 4 μM in 10 mM sodium acetate buffer (pH 6.5) with or without inhibitors (40 μM), and a final concentration of HFIP of 1% (vol). Immediately after dilution, sample was centrifuged for 20 minutes in 20,000×g at 4° C. and the supernatant fraction was used for fluorescence measurements. In every measurement ThT was added to a 1 ml sample at a final concentration of 3 μM and measurements were effected by using Perkin-Elmer (excitation 450 nm, 2.5 nm slit; emission 480 nm 10 nm slit). Background was subtracted from all samples.

inhibition of IAPP fibrillization (ThT fluorescence at plateau) (hIAPP1-37) | ThT fluorescence of IAPP in the presence of the inhibitory peptide ([1]; hIAPP in 10 mM Tris pH 7.2 with or without modified peptide, room temperature) | Substance | inhibition of IAPP aggregation (ThT endpoint) [1]
– | – | Aib-Phe-Phe ([Aib]-Phe-Phe) [EG12] | best inhibitor
effective inhibition | – | D-Tyr-Aib [EG16] | significant inhibitory effect on IAPP aggregation
– | significant increase in fluorescence | NFLVHPP | –
